Measured values reported in US20210139548A1 (published 2021).
*1 amine or outer side, *2 acyl side, *3 side chain or, on linkers, in order; H or OH if unused. Side-chain parts run from the residue outwards. The star is where a group is joined. C18 diacid = O=C(O)CCCCCCCCCCCCCCCCC(=O)*; γGlu = O=C(O)[C@H](CCC(=O)[*:2])N[*:1]; Isovaleryl = CC(C)CC(=O)*; AEEA = NCCOCCOCC(=O)O

T1: human neuropeptide Y2 receptor (human, UniProt P49146 1-381)
T1 construct: whole, on cells; also called hNPY2 receptor; hNPY2-R
T1 sequence (looked up): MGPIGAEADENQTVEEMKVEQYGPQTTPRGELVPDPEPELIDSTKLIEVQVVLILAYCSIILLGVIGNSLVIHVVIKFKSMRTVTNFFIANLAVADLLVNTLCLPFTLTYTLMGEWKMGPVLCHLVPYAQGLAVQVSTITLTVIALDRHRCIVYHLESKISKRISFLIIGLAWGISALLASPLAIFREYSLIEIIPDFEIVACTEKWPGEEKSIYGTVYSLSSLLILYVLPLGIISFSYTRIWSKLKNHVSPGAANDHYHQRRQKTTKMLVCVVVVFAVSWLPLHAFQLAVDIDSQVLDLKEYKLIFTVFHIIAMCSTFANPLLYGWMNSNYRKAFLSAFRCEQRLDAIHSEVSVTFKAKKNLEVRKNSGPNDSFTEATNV

B1: Compound 142 (peptide)
peptide: Isovaleryl-APEK([AEEA-AEEA-γGlu-C18 diacid])PPEEASPEELQRYYVSLRHYYNWLTRQRY-NH2
SMILES: CC(C)CC(=O)N[C@@H](C)C(=O)N1CCC[C@H]1C(=O)N[C@@H](CCC(=O)O)C(=O)N[C@@H](CCCCNC(=O)COCCOCCNC(=O)COCCOCCNC(=O)CC[C@H](NC(=O)CCCCCCCCCCCCCCCCC(=O)O)C(=O)O)C(=O)N1CCC[C@H]1C(=O)N1CCC[C@H]1C(=O)N[C@@H](CCC(=O)O)C(=O)N[C@@H](CCC(=O)O)C(=O)N[C@@H](C)C(=O)N[C@@H](CO)C(=O)N1CCC[C@H]1C(=O)N[C@@H](CCC(=O)O)C(=O)N[C@@H](CCC(=O)O)C(=O)N[C@@H](CC(C)C)C(=O)N[C@@H](CCC(N)=O)C(=O)N[C@@H](CCCNC(=N)N)C(=O)N[C@@H](Cc1ccc(O)cc1)C(=O)N[C@@H](Cc1ccc(O)cc1)C(=O)N[C@H](C(=O)N[C@@H](CO)C(=O)N[C@@H](CC(C)C)C(=O)N[C@@H](CCCNC(=N)N)C(=O)N[C@@H](Cc1c[nH]cn1)C(=O)N[C@@H](Cc1ccc(O)cc1)C(=O)N[C@@H](Cc1ccc(O)cc1)C(=O)N[C@@H](CC(N)=O)C(=O)N[C@@H](Cc1c[nH]c2ccccc12)C(=O)N[C@@H](CC(C)C)C(=O)N[C@H](C(=O)N[C@@H](CCCNC(=N)N)C(=O)N[C@@H](CCC(N)=O)C(=O)N[C@@H](CCCNC(=N)N)C(=O)N[C@@H](Cc1ccc(O)cc1)C(N)=O)[C@@H](C)O)C(C)C
B2: Compound 144 (peptide)
peptide: Isovaleryl-APEK([AEEA-AEEA-γGlu-C18 diacid])AEEDASPEELQQYYVSLRHYYNWLTRQRY-NH2
SMILES: CC(C)CC(=O)N[C@@H](C)C(=O)N1CCC[C@H]1C(=O)N[C@@H](CCC(=O)O)C(=O)N[C@@H](CCCCNC(=O)COCCOCCNC(=O)COCCOCCNC(=O)CC[C@H](NC(=O)CCCCCCCCCCCCCCCCC(=O)O)C(=O)O)C(=O)N[C@@H](C)C(=O)N[C@@H](CCC(=O)O)C(=O)N[C@@H](CCC(=O)O)C(=O)N[C@@H](CC(=O)O)C(=O)N[C@@H](C)C(=O)N[C@@H](CO)C(=O)N1CCC[C@H]1C(=O)N[C@@H](CCC(=O)O)C(=O)N[C@@H](CCC(=O)O)C(=O)N[C@@H](CC(C)C)C(=O)N[C@@H](CCC(N)=O)C(=O)N[C@@H](CCC(N)=O)C(=O)N[C@@H](Cc1ccc(O)cc1)C(=O)N[C@@H](Cc1ccc(O)cc1)C(=O)N[C@H](C(=O)N[C@@H](CO)C(=O)N[C@@H](CC(C)C)C(=O)N[C@@H](CCCNC(=N)N)C(=O)N[C@@H](Cc1c[nH]cn1)C(=O)N[C@@H](Cc1ccc(O)cc1)C(=O)N[C@@H](Cc1ccc(O)cc1)C(=O)N[C@@H](CC(N)=O)C(=O)N[C@@H](Cc1c[nH]c2ccccc12)C(=O)N[C@@H](CC(C)C)C(=O)N[C@H](C(=O)N[C@@H](CCCNC(=N)N)C(=O)N[C@@H](CCC(N)=O)C(=O)N[C@@H](CCCNC(=N)N)C(=O)N[C@@H](Cc1ccc(O)cc1)C(N)=O)[C@@H](C)O)C(C)C
B3: Compound 149 (peptide)
peptide: Isovaleryl-APEK([AEEA-AEEA-γGlu-C18 diacid])PEEAASPEELQRYYVELRHYYNWLTRQRY-NH2
SMILES: CC(C)CC(=O)N[C@@H](C)C(=O)N1CCC[C@H]1C(=O)N[C@@H](CCC(=O)O)C(=O)N[C@@H](CCCCNC(=O)COCCOCCNC(=O)COCCOCCNC(=O)CC[C@H](NC(=O)CCCCCCCCCCCCCCCCC(=O)O)C(=O)O)C(=O)N1CCC[C@H]1C(=O)N[C@@H](CCC(=O)O)C(=O)N[C@@H](CCC(=O)O)C(=O)N[C@@H](C)C(=O)N[C@@H](C)C(=O)N[C@@H](CO)C(=O)N1CCC[C@H]1C(=O)N[C@@H](CCC(=O)O)C(=O)N[C@@H](CCC(=O)O)C(=O)N[C@@H](CC(C)C)C(=O)N[C@@H](CCC(N)=O)C(=O)N[C@@H](CCCNC(=N)N)C(=O)N[C@@H](Cc1ccc(O)cc1)C(=O)N[C@@H](Cc1ccc(O)cc1)C(=O)N[C@H](C(=O)N[C@@H](CCC(=O)O)C(=O)N[C@@H](CC(C)C)C(=O)N[C@@H](CCCNC(=N)N)C(=O)N[C@@H](Cc1c[nH]cn1)C(=O)N[C@@H](Cc1ccc(O)cc1)C(=O)N[C@@H](Cc1ccc(O)cc1)C(=O)N[C@@H](CC(N)=O)C(=O)N[C@@H](Cc1c[nH]c2ccccc12)C(=O)N[C@@H](CC(C)C)C(=O)N[C@H](C(=O)N[C@@H](CCCNC(=N)N)C(=O)N[C@@H](CCC(N)=O)C(=O)N[C@@H](CCCNC(=N)N)C(=O)N[C@@H](Cc1ccc(O)cc1)C(N)=O)[C@@H](C)O)C(C)C
B4: Compound 146 (peptide)
peptide: Isovaleryl-APEK([AEEA-AEEA-γGlu-C18 diacid])PEEEASPEELQRYYVSTRHYYNWLTRQRY-NH2
SMILES: CC(C)CC(=O)N[C@@H](C)C(=O)N1CCC[C@H]1C(=O)N[C@@H](CCC(=O)O)C(=O)N[C@@H](CCCCNC(=O)COCCOCCNC(=O)COCCOCCNC(=O)CC[C@H](NC(=O)CCCCCCCCCCCCCCCCC(=O)O)C(=O)O)C(=O)N1CCC[C@H]1C(=O)N[C@@H](CCC(=O)O)C(=O)N[C@@H](CCC(=O)O)C(=O)N[C@@H](CCC(=O)O)C(=O)N[C@@H](C)C(=O)N[C@@H](CO)C(=O)N1CCC[C@H]1C(=O)N[C@@H](CCC(=O)O)C(=O)N[C@@H](CCC(=O)O)C(=O)N[C@@H](CC(C)C)C(=O)N[C@@H](CCC(N)=O)C(=O)N[C@@H](CCCNC(=N)N)C(=O)N[C@@H](Cc1ccc(O)cc1)C(=O)N[C@@H](Cc1ccc(O)cc1)C(=O)N[C@H](C(=O)N[C@@H](CO)C(=O)N[C@H](C(=O)N[C@@H](CCCNC(=N)N)C(=O)N[C@@H](Cc1c[nH]cn1)C(=O)N[C@@H](Cc1ccc(O)cc1)C(=O)N[C@@H](Cc1ccc(O)cc1)C(=O)N[C@@H](CC(N)=O)C(=O)N[C@@H](Cc1c[nH]c2ccccc12)C(=O)N[C@@H](CC(C)C)C(=O)N[C@H](C(=O)N[C@@H](CCCNC(=N)N)C(=O)N[C@@H](CCC(N)=O)C(=O)N[C@@H](CCCNC(=N)N)C(=O)N[C@@H](Cc1ccc(O)cc1)C(N)=O)[C@@H](C)O)[C@@H](C)O)C(C)C
B5: Compound 147 (peptide)
peptide: Isovaleryl-APEK([AEEA-AEEA-γGlu-C18 diacid])PEEDASPEETQKYYVSLRHYYNWLTRQRY-NH2
SMILES: CC(C)CC(=O)N[C@@H](C)C(=O)N1CCC[C@H]1C(=O)N[C@@H](CCC(=O)O)C(=O)N[C@@H](CCCCNC(=O)COCCOCCNC(=O)COCCOCCNC(=O)CC[C@H](NC(=O)CCCCCCCCCCCCCCCCC(=O)O)C(=O)O)C(=O)N1CCC[C@H]1C(=O)N[C@@H](CCC(=O)O)C(=O)N[C@@H](CCC(=O)O)C(=O)N[C@@H](CC(=O)O)C(=O)N[C@@H](C)C(=O)N[C@@H](CO)C(=O)N1CCC[C@H]1C(=O)N[C@@H](CCC(=O)O)C(=O)N[C@@H](CCC(=O)O)C(=O)N[C@H](C(=O)N[C@@H](CCC(N)=O)C(=O)N[C@@H](CCCCN)C(=O)N[C@@H](Cc1ccc(O)cc1)C(=O)N[C@@H](Cc1ccc(O)cc1)C(=O)N[C@H](C(=O)N[C@@H](CO)C(=O)N[C@@H](CC(C)C)C(=O)N[C@@H](CCCNC(=N)N)C(=O)N[C@@H](Cc1c[nH]cn1)C(=O)N[C@@H](Cc1ccc(O)cc1)C(=O)N[C@@H](Cc1ccc(O)cc1)C(=O)N[C@@H](CC(N)=O)C(=O)N[C@@H](Cc1c[nH]c2ccccc12)C(=O)N[C@@H](CC(C)C)C(=O)N[C@H](C(=O)N[C@@H](CCCNC(=N)N)C(=O)N[C@@H](CCC(N)=O)C(=O)N[C@@H](CCCNC(=N)N)C(=O)N[C@@H](Cc1ccc(O)cc1)C(N)=O)[C@@H](C)O)C(C)C)[C@@H](C)O
B6: Compound 145 (peptide)
peptide: Isovaleryl-APEK([AEEA-AEEA-γGlu-C18 diacid])PEEDSSPEEIQRYYVSLRHYYNWLTRQRY-NH2
SMILES: CC[C@H](C)[C@H](NC(=O)[C@H](CCC(=O)O)NC(=O)[C@H](CCC(=O)O)NC(=O)[C@@H]1CCCN1C(=O)[C@H](CO)NC(=O)[C@H](CO)NC(=O)[C@H](CC(=O)O)NC(=O)[C@H](CCC(=O)O)NC(=O)[C@H](CCC(=O)O)NC(=O)[C@@H]1CCCN1C(=O)[C@H](CCCCNC(=O)COCCOCCNC(=O)COCCOCCNC(=O)CC[C@H](NC(=O)CCCCCCCCCCCCCCCCC(=O)O)C(=O)O)NC(=O)[C@H](CCC(=O)O)NC(=O)[C@@H]1CCCN1C(=O)[C@H](C)NC(=O)CC(C)C)C(=O)N[C@@H](CCC(N)=O)C(=O)N[C@@H](CCCNC(=N)N)C(=O)N[C@@H](Cc1ccc(O)cc1)C(=O)N[C@@H](Cc1ccc(O)cc1)C(=O)N[C@H](C(=O)N[C@@H](CO)C(=O)N[C@@H](CC(C)C)C(=O)N[C@@H](CCCNC(=N)N)C(=O)N[C@@H](Cc1c[nH]cn1)C(=O)N[C@@H](Cc1ccc(O)cc1)C(=O)N[C@@H](Cc1ccc(O)cc1)C(=O)N[C@@H](CC(N)=O)C(=O)N[C@@H](Cc1c[nH]c2ccccc12)C(=O)N[C@@H](CC(C)C)C(=O)N[C@H](C(=O)N[C@@H](CCCNC(=N)N)C(=O)N[C@@H](CCC(N)=O)C(=O)N[C@@H](CCCNC(=N)N)C(=O)N[C@@H](Cc1ccc(O)cc1)C(N)=O)[C@@H](C)O)C(C)C

Molecular target: T1, human neuropeptide Y2 receptor
Assay: radioligand competition (125I-PYY(1-36)), hNPY2R membranes
How it was run: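 Commercial human Y2 receptor membranes (0.5 μg protein/well) were incubated with peptide for 2 h at room temperature in 50 mM HEPES, 5 mM MgCl₂, 1 mM CaCl₂, pH 7.4, with 0.2% ovalbumin. Bound radioligand was separated on PEI-soaked GF/C filters and counted by scintillation, and IC₅₀ came from nonlinear sigmoidal regression.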

Binder | Ki
B1 | 1.17 nM
B2 | 8.92 nM
B3 | 2.75 nM
B4 | 5.05 nM
B5 | 1.19 nM
B6 | 1.55 nM
